Patent CN115703834A (BOAOXIN BIOTECHNOLOGY NANJING CO LTD, dated 2023)

Tests used:
[1] = target: T1, 人CD47 (表面过表达人CD47的293F细胞) (human, UniProt Q08722 19-323); assay: flow cytometry on 293F cells overexpressing human CD47
T1 construct: whole, on cells; also called 表面过表达人CD47的稳定细胞系293F

[2] = target: T2, 重组人CD47-his蛋白 (ACRO biosystems, cat#CD7-H5227, MW 15.6 kDa) (human, UniProt Q08722 19-139, biotin-labelled in the ELISA assays (sites not given); unlabelled in Biacore); assay: SPR (Biacore T200), antibody captured on goat anti-mouse IgG, CD47-his in flow
T2 construct: Bought protein; The same catalogue number is used unlabelled (SPR) and biotin-labelled (ELISAs); also called 人CD47蛋白; 生物素标记的人CD47; not shown: His tag
T2 sequence (Q08722 19-139 limits assumed): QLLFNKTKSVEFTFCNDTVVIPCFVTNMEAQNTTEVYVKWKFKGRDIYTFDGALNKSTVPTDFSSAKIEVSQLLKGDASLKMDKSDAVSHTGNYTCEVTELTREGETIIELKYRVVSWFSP

T1 sequence (Q08722 19-323): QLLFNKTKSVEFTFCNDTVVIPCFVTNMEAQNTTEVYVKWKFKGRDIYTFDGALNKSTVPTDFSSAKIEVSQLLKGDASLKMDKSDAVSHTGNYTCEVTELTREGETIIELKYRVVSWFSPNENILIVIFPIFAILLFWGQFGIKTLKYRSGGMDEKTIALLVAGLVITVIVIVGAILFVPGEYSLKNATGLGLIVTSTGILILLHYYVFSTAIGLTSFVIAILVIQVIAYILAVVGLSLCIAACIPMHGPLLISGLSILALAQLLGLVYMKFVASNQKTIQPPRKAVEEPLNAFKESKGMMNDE

binding result [1]: binds
binding result [2]: binds
B1: 抗人CD47单克隆抗体1A5 (antibody, V domains shown)
VH: EVQLQQSGAELVRSGASVTLSCTASGFNIKDYYMNWVKQRPEQGLEWIGWIGPENGDTENDPRFQGKATMTADTSSNTAFLQLSSLTSEDTAFYYCNAGGRGGFPYWGQGTLVTVST
VL: DILLTQTPLSLPVSLGDQASFSCRSSQNIVHINGKTYLEWYLQKPGQSPKLLIYRVSNRFSGVPDRFSGSGSGTDFTLKISRVEAEDLGVYYCFQGSHVPRTFGGGTKLEIK
notes: also called 本发明的单克隆抗体1A5; 本发明的抗体1A5
